Values belong to the substance of their own block, whether it stands above or below them.
Key:
Experiment in all cases: split reporter
[1] = molecular target: zipped β1–10 of ZipGFP with TEV cleavage sequence (E5-β1–10-K5), cleaved by co-expressed TEV protease
[2] = molecular target: zipped β1–10 of the ZipGFP caspase reporter (E5-β1–10-K5 with DEVD), cleaved upon apoptosis
[3] = molecular target: β1–10 part of ZipGFP with TEV cleavage sequence (E5-β1–10-K5), cleaved by TEV protease, purified

fold increase of green fluorescence over the uncleaved reporter [1]: 10 fold
Substance: zipped β11 of ZipGFP with TEV cleavage sequence (K5-β11-E5), cleaved by co-expressed TEV protease

fold increase of green fluorescence (normalized to mCherry) upon apoptosis [2]: 5 to 10 fold
Substance: zipped β11 of the ZipGFP caspase reporter (K5-β11-E5 with DEVD), cleaved upon apoptosis

time to half-maximal fluorescence (T1/2) after mixing [3]: 40 min
Substance: β11 part of ZipGFP with TEV cleavage sequence (K5-β11-E5), cleaved by TEV protease, purified

Reference: paper PMC5026494
